Targets include PARD3_1, Q8TEW0; PARD3B_3, Q8TEW8; PREX1_1, Q8TCU6; SDCBP_1, O00560; MAGI1_3, Q96QZ7; SCRIB_4, Q14160; PDZD9, Q8IXQ8.
What all share (experiment): holdup assay
Holding throughout (set-up): key: below the threshold = too weak to quantify, mostly under pKd 3.1 to 4

Another assay has as its target T1, PDZD2_5, O15018.
T1 sequence (O15018 2617-2716, limits assumed, looked up): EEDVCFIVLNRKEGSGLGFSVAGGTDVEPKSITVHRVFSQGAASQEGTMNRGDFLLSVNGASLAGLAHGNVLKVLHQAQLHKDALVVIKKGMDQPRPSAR

The next assay concerns the target T2, NHERF3_2, Q5T2W1.
T2 sequence (Q5T2W1 129-225, limits assumed, looked up): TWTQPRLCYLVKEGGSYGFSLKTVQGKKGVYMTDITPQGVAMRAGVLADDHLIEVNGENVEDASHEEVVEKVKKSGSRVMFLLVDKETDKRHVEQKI

For the next assay, the target named is T3, GIPC1, O14908.
T3 sequence (O14908 128-223, limits assumed, looked up): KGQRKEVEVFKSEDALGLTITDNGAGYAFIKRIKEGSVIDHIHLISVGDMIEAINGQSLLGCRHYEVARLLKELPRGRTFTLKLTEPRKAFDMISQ

The target in another assay is T4, PDZD4, Q76G19.
T4 sequence (Q76G19 125-224, limits assumed, looked up): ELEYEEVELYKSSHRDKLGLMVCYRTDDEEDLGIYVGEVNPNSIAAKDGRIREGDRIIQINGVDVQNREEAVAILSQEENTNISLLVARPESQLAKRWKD

The next assay deals with T5, USH1C_1, Q9Y6N9.
T5 sequence (Q9Y6N9 82-179, limits assumed, looked up): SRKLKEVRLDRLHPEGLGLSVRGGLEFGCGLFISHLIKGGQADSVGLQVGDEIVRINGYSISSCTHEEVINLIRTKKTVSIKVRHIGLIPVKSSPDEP

Another assay concerns the target T6, DVL1, O14640.
T6 sequence (O14640 246-333, limits assumed, looked up): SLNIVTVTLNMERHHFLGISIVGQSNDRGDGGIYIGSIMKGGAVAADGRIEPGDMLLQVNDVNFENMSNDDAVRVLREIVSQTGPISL

Another assay addresses T7, NHERF1_1, O14745.
T7 sequence (O14745 9-104, limits assumed, looked up): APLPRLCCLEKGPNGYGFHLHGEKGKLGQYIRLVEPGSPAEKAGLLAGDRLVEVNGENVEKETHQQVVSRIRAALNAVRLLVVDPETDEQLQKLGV

The target of another assay is T8, PARD6G, Q9BYG4.
T8 sequence (Q9BYG4 153-261, limits assumed, looked up): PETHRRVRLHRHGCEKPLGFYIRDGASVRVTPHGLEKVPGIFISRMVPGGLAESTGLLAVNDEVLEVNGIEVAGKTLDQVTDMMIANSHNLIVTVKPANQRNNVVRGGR

The next assay deals with T9, PDZD2_6, O15018.
T9 sequence (O15018 2745-2839, limits assumed, looked up): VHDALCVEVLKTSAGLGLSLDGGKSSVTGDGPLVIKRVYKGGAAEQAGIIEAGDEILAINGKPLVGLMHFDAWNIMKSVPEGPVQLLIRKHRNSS

Another assay addresses T10, MPDZ_3, O75970.
T10 sequence (O75970 372-473, limits assumed, looked up): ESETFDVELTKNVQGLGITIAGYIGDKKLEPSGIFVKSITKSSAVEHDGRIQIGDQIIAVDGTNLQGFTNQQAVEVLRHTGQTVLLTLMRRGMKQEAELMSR

The target of the next assay is T11, NHERF1_2, O14745.
T11 sequence (O14745 149-244, limits assumed, looked up): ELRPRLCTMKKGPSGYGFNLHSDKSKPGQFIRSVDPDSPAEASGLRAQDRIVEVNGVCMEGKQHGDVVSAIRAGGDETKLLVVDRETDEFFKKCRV

Another assay addresses T12, MPDZ_13, O75970.
T12 sequence (O75970 1982-2070, limits assumed, looked up): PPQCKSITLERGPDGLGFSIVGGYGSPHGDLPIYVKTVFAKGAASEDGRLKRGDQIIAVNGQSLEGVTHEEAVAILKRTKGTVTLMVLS

The next assay concerns the target T13, PTPN13_5, Q12923.
T13 sequence (Q12923 1877-1975, limits assumed, looked up): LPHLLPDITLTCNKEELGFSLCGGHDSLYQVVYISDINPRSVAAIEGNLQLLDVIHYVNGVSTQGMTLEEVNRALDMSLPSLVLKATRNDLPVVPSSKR

The target of a further assay is T14, SHANK3, Q9BYB0.
T14 sequence (Q9BYB0 641-750, limits assumed, looked up): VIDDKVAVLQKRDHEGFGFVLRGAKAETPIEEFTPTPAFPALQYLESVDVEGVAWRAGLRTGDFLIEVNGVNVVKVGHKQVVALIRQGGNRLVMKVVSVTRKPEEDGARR

The next assay deals with T15, CNKSR1, Q969H4.
T15 sequence (Q969H4 191-295, limits assumed, looked up): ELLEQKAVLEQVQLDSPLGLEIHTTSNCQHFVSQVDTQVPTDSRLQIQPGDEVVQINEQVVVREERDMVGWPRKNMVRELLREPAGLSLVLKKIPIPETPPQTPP

Setting [1] is: modified: acetyl on K at position -1 from the C-terminal residue.
[2] abbreviates: modified: phospho on S at position -3 from the C-terminal residue.
Setting [3] is: plain residues with an end cap or a label only (N-terminal biotin on a linker: (peg)3).

Chain of PDZD9, Q8IXQ8 (Q8IXQ8 23-120): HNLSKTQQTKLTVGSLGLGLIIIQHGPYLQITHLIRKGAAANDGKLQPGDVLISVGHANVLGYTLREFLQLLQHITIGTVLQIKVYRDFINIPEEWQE
Chain of PREX1_1, Q8TCU6 (Q8TCU6 608-718): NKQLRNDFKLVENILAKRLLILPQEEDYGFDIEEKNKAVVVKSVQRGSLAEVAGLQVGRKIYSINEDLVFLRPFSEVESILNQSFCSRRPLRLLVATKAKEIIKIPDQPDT
Chain of SCRIB_4, Q14160 (Q14160 1095-1204): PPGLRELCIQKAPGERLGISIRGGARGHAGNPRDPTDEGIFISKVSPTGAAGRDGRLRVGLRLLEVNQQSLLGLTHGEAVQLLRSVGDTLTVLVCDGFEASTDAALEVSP
Chain of SDCBP_1, O00560 (O00560 111-198): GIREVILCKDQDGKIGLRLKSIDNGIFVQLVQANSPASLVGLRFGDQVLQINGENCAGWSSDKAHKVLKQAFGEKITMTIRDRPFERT
Chain of PARD3_1, Q8TEW0 (Q8TEW0 264-372): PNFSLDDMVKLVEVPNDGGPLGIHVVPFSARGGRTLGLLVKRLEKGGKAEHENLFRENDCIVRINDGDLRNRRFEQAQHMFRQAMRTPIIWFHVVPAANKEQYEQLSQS
Chain of PARD3B_3, Q8TEW8 (Q8TEW8 490-594): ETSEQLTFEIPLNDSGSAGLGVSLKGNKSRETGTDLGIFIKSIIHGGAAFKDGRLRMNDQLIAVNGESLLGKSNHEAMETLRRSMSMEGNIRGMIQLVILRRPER
Chain of MAGI1_3, Q96QZ7 (Q96QZ7 638-725): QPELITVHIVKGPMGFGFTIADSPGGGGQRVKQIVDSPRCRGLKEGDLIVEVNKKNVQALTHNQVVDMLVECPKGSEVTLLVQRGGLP

B1: PTEN_Ac, P60484 (peptide)
chain: DEDQHTQITKV
As for B1, the pKd (usually −log10 of the Kd, conventionally taken in molar units) with PDZD2_5, O15018 (setting [1]) was “below the threshold”; with NHERF3_2, Q5T2W1 (setting [1]), 3.61; with PARD3_1, Q8TEW0 (setting [1]) it was “below the threshold”; in the assay with GIPC1, O14908 (setting [1]), “below the threshold”; in the assay with PDZD4, Q76G19 (setting [1]) it was “below the threshold”; with PARD3B_3, Q8TEW8 (setting [1]) it was “below the threshold”. Moreover, the pKd entry with USH1C_1, Q9Y6N9 (setting [1]) was “below the threshold”; with DVL1, O14640 (setting [1]), “below the threshold”; in the assay with PREX1_1, Q8TCU6 (setting [1]), “below the threshold”; with NHERF1_1, O14745 (setting [1]) it was 4.85; in the assay with PARD6G, Q9BYG4 (setting [1]), “below the threshold”; with SDCBP_1, O00560 (setting [1]) it was “below the threshold”. The pKd result in the assay with PDZD2_6, O15018 (setting [1]) is “below the threshold”; in the assay with MAGI1_3, Q96QZ7 (setting [1]) it was 4.98; in the assay with SCRIB_4, Q14160 (setting [1]), “below the threshold”; with MPDZ_3, O75970 (setting [1]), “below the threshold”; with NHERF1_2, O14745 (setting [1]), “below the threshold”; with MPDZ_13, O75970 (setting [1]) it was 4.29. The pKd result with PTPN13_5, Q12923 (setting [1]) is “below the threshold”; in the assay with SHANK3, Q9BYB0 (setting [1]) it was 4.04; with CNKSR1, Q969H4 (setting [1]), 3.66; with PDZD9, Q8IXQ8 (setting [1]) it was “below the threshold”.

B2: RPS6KA1_-3P, Q15418 (peptide)
chain: RRVRKLPSTTL
In the case of B2, the pKd result was “below the threshold” in the assay with PDZD2_5, O15018 (setting [2]); “below the threshold” in the assay with NHERF3_2, Q5T2W1 (setting [2]); “below the threshold” in the assay with PARD3_1, Q8TEW0 (setting [2]); “below the threshold” with GIPC1, O14908 (setting [2]); “below the threshold” in the assay with PDZD4, Q76G19 (setting [2]); “below the threshold” in the assay with PARD3B_3, Q8TEW8 (setting [2]). In addition, the pKd result with USH1C_1, Q9Y6N9 (setting [2]) was “below the threshold”; with DVL1, O14640 (setting [2]), “below the threshold”; with PREX1_1, Q8TCU6 (setting [2]), “below the threshold”; with NHERF1_1, O14745 (setting [2]), “below the threshold”; with PARD6G, Q9BYG4 (setting [2]), “below the threshold”; with SDCBP_1, O00560 (setting [2]) it was “below the threshold”. The pKd entry with PDZD2_6, O15018 (setting [2]) was “below the threshold”; in the assay with MAGI1_3, Q96QZ7 (setting [2]) it was “below the threshold”; in the assay with SCRIB_4, Q14160 (setting [2]) it was “below the threshold”; with MPDZ_3, O75970 (setting [2]) it was “below the threshold”; in the assay with NHERF1_2, O14745 (setting [2]), “below the threshold”; with MPDZ_13, O75970 (setting [2]), 3.72. The pKd result with PTPN13_5, Q12923 (setting [2]) is “below the threshold”; with SHANK3, Q9BYB0 (setting [2]), “below the threshold”; with CNKSR1, Q969H4 (setting [2]), 3.49; in the assay with PDZD9, Q8IXQ8 (setting [2]), “below the threshold”.

B3: SARS-Cov2-3a, P0DTC3 (peptide)
chain: YDEPTTTTSVPL
For B3, the pKd result with PDZD2_5, O15018 (setting [3]) is “below the threshold”; with NHERF3_2, Q5T2W1 (setting [3]), “below the threshold”; with PARD3_1, Q8TEW0 (setting [3]), 3.98; with GIPC1, O14908 (setting [3]), “below the threshold”; with PDZD4, Q76G19 (setting [3]), “below the threshold”; in the assay with PARD3B_3, Q8TEW8 (setting [3]) it was “below the threshold”. For the same molecule, the pKd result with USH1C_1, Q9Y6N9 (setting [3]) is “below the threshold”; with DVL1, O14640 (setting [3]), “below the threshold”; with PREX1_1, Q8TCU6 (setting [3]) it was “below the threshold”; with NHERF1_1, O14745 (setting [3]) it was “below the threshold”; with PARD6G, Q9BYG4 (setting [3]) it was “below the threshold”; with SDCBP_1, O00560 (setting [3]), “below the threshold”. For the same molecule, the pKd entry is listed as “below the threshold” in the assay with PDZD2_6, O15018 (setting [3]); “below the threshold” with MAGI1_3, Q96QZ7 (setting [3]); “below the threshold” with SCRIB_4, Q14160 (setting [3]); “below the threshold” with MPDZ_3, O75970 (setting [3]); “below the threshold” with NHERF1_2, O14745 (setting [3]); “below the threshold” with MPDZ_13, O75970 (setting [3]). Further, the pKd entry with PTPN13_5, Q12923 (setting [3]) is given as “below the threshold”; with SHANK3, Q9BYB0 (setting [3]), “below the threshold”; with CNKSR1, Q969H4 (setting [3]) it was “below the threshold”; with PDZD9, Q8IXQ8 (setting [3]), “below the threshold”.

The record behind these values is PMC9482650, “Quantitative fragmentomics allow affinity mapping of interactomes” (Nature Communications, 2022).
